Data: patent publication US20230051538A1

Experiments:
alpha-synuclein monomer = alpha-synuclein monomer (UniProt P37840); test: SPR, antibody immobilized, steady state fitting
[1] = biological target: alpha-synuclein physiological tetramer (UniProt P37840); test: SPR, antibody immobilized, steady state fitting
[2] = biological target: alpha-synuclein oligomers (UniProt P37840); test: SPR, antibody immobilized, kinetic fitting, 1:1 model
[3] = biological target: alpha-synuclein sonicated preformed fibrils (soluble fibrils) (human) (UniProt P37840); test: as above
[4] = biological target: alpha-synuclein in Lewy Body Disease (LBD/DLB) brain (human) (UniProt P37840); test: dot blot signal on LBD brain extract over control brain extract

“Prasinezumab, Human IgG, PRX002/RG7935, Creative Biolabs (antibody)” was tested, and the Kd (alpha-synuclein monomer) was 100 nM, the Kd [1] was 50 nM and the Kd [2] was 72 nM. The koff [2] was 0.00181 s⁻¹, the kon [2] was 25100 M⁻¹ s⁻¹ and the Kd [3] was 11 nM. The koff [3] was 0.000209 s⁻¹ and the kon [3] was 19500 M⁻¹ s⁻¹.

Substance “Syn-F1 aggregation/fibril preferring antibody” has a Fold of reactivity LBD vs. Control (LBD / Control) [4] of 3.8 fold.

“pan-Alpha Syn Antibody (4D6) (Biolegend)” gave a Fold of reactivity LBD vs. Control (LBD / Control) [4] of 2.2 fold.

Work on “NI-202.12F4 (Creative Biolabs) (antibody)” yielded a Kd (alpha-synuclein monomer) of 8600 nM, a Kd [1] of 14000 nM and a Kd [2] of 131 nM. It also gave a koff [2] of 0.001 s⁻¹, a kon [2] of 7640 M⁻¹ s⁻¹ and a Kd [3] of 12 nM. The koff [3] was 3.75e-05 s⁻¹ and the kon [3] was 3100 M⁻¹ s⁻¹.
